Experiments:
[1] = biological target: human βNGF (R&D Systems, Inc.) (human, UniProt P01138 122-241); experiment: cell-based or functional assay
[2] = biological target: mouse βNGF (R&D Systems, Inc.) (mouse, UniProt P01139 122-241); experiment: cell-based or functional assay
mouse βNGF (R&D Systems, Inc.), sequence (P01139 122-241 limits assumed): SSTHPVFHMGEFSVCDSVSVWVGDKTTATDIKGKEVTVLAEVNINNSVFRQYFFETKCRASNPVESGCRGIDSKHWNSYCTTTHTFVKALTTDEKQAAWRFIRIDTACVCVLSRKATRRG

human βNGF (R&D Systems, Inc.), sequence (P01138 122-241 limits assumed): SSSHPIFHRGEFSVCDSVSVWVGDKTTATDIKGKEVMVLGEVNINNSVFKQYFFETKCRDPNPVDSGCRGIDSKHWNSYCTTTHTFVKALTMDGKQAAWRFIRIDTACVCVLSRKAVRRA

B1: 1-15(N52D-A)-Fab′ conjugated to 5 kDa PEG (Fab, V domains shown)
VH: QVQLQQWGAGLLKPSETLSLTCAVYGGSFSGYYWSWVRQPPGKGLEWIGEIDHSGSTNNNPSLKSRVTISVGTSKNQFSLKLSSVTAADTAVYYCSRDGGPESGMGAFDIWGQGTMVTVSS
VL: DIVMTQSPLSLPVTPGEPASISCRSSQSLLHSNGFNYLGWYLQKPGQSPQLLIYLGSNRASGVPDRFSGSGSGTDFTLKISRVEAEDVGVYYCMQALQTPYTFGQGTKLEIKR
modifications: 5 kDa PEG conjugated by a procedure similar to Example 13 (hinge region Cys)
Q: How did the “IC50, method of Example 6 at a final NGF concentration of 50 ng/ml” value [1] turn out when B1 was run?
A: 0.03 µg/mL

B2: PEGylated 1-15(N52D)-Fab′ (Fab, V domains shown)
VH: QVQLQQWGAGLLKPSETLSLTCAVYGGSFSGYYWSWVRQPPGKGLEWIGEIDHSGSTNNNPSLKSRVTISVGTSKNQFSLKLSSVTAADTAVYYCSRDGGPESGMGAFDIWGQGTMVTVSS
VL: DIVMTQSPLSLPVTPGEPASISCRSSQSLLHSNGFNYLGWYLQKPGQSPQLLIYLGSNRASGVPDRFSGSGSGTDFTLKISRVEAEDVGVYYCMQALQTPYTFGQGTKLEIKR
modifications: 40 kDa PEG (maleimide, SUNBRIGHT GL2-400MA) on Cys at position 230 of SEQ ID NO:10 (C226 based on EU index)
Q: With B2 as the binder, how does the “IC50, method of Example 6 (Ca2+, HEK293-human trkA)” value (“IC50 … (Ca2+, HEK293-human trkA)” below) [2] read?
A: 0.069 µg/mL

B3: 1-15(N52D-A)-Fab′ conjugated to 10 kDa PEG (Fab, V domains shown)
VH: QVQLQQWGAGLLKPSETLSLTCAVYGGSFSGYYWSWVRQPPGKGLEWIGEIDHSGSTNNNPSLKSRVTISVGTSKNQFSLKLSSVTAADTAVYYCSRDGGPESGMGAFDIWGQGTMVTVSS
VL: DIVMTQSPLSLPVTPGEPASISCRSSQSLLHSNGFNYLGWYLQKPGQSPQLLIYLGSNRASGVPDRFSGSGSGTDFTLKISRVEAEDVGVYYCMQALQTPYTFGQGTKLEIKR
modifications: 10 kDa PEG conjugated by a procedure similar to Example 13 (hinge region Cys)
Q: Which “IC50, method of Example 6 at a final NGF concentration of 50 ng/ml” value [1] does the source give for B3 here?
A: 0.028 µg/mL

B4: tanezumab (antibody, V domains shown)
VH: QVQLQESGPGLVKPSETLSLTCTVSGFSLIGYDLNWIRQPPGKGLEWIGIIWGDGTTDYNSAVKSRVTISKDTSKNQFSLKLSSVTAADTAVYYCARGGYWYATSYYFDYWGQGTLVTVSS
VL: DIQMTQSPSSLSASVGDRVTITCRASQSISNNLNWYQQKPGKAPKLLIYYTSRFHSGVPSRFSGSGSGTDFTFTISSLQPEDIATYYCQQEHTLPYTFGQGTKLEIKR
Q: Which “IC50 … (Ca2+, HEK293-human trkA)” value [2] does the source give for B4 here?
A: 0.23 µg/mL

Q: What about the “IC50 … (Ca2+, HEK293-human trkA)” value [1] of the same binder?
A: 0.17 µg/mL

Reference: patent publication US20140155582A1 (Astellas, published 2014)
